Test [1] concerns H1 cells. The experiment in a line: NANOG mRNA expression. The format is cell-based, human. Particulars: added to DF5S; NODAL 100 ng/ml or TGF-β 2 ng/ml; compared to DF5S. The source says:
DF5S was used to expand H1 cells. Cells grown in DF5S were more prone to differentiate than cells grown in TeSR™. However, H1 cells could be grown for several weeks (more than 15 passages), during which the cells maintained human ES cell morphology and high levels of OCT4 expression (FIG. 1E, FIG. 1F). […] DF5S+NODAL also supported pluripotency of the two tested human iPS cell lines, as determined by high expression of the pluripotency marker OCT4. All cells (hES cells and iPS cells) grown in DF5S with either NODAL or TGF-β maintained a normal karyotype after long-term passage.

The subject of test [2] is H1 cells. Nature of the test: Oct4 expression by flow cytometry as indicator of pluripotency. The conditions noted are these: DF5SFe supplemented with NODAL at TeSR concentration. The format is cell-based, human. Here is the method: As described in Example 3, human pluripotent cells, such as H1, H9, and iPS cells, could be grown and passaged over 15 times in DF5S but were prone to differentiate, such that extra care is needed to sustain pluripotency in DF5S. Because pluripotency could be maintained more easily in TeSR™, growth factors present in TeSR™ were added individually to DF5SFe used to grow H1 cells that were previously cultured in DF5S without differentiating to identify factors supporting long-term pluripotency. Cells were passaged approximately one day after reaching confluency, facilitating cell differentiation, and Oct4 expression, assessed by flow cytometry, was used as indicator of pluripotency.
Human pluripotent cells grown in DF5SFe elongated and lined up along each other, resembling a “spindle” shape just prior to differentiation. […] Thus, recombinant proteins of the TGF-β pathway were tested for their ability to support long-term pluripotency.

Test [3] concerns iPS cells. Nature of the test: Long-term pluripotency of lentiviral iPS cell lines. It is filed as cell-based, human. The conditions noted are these: added to DF5SFe; TGF-β 2 ng/ml or NODAL 100 ng/ml. The source says:
Human ES cell lines, such as H1 and H9 have a culture history that includes exposure to various complex culture components, such as FBS, feeder cells, and knockout serum replacer. Exposure to these components could conceivably create dependency on these components and, consequently, alter cellular response to simplified media. Culture history might play a lesser role for iPS cells, derived from reprogrammed somatic cells, as derivation conditions are less complex. Therefore, different factors were tested with two original lentiviral iPS cell lines (Yu, et al., Science 318:1917 (2007)) grown in DF5SFe. Cells were transferred from MEF plates directly into DF5SFe medium for one passage and then passaged into various growth factor conditions. […] Pluripotency surface markers SSEA4, SSEA3, Tra-1-60, and Tra-1-81 were also expressed. Cells with normal karyotypes were continuously maintained for more than 20 passages. The cells were capable of forming teratomas 5-7 weeks after injection into severe combined immunodeficient (SCID) mice.

The subject of test [4] is foreskin cells. The experiment in a line: Foreskin cell growth in DF5SFe-based media. Details: species or system human. The conditions noted are these: individual FGF added at 100 ng/ml for 96 h to DF5SFe minus FGF. Here is the method: To determine growth factors that can help primary foreskin cell growth, individual growth factors contained in FBS were tested. The FGF family of growth factors has several members, one or more of which is commonly used for fibroblast culture. DF5SFe contains 100 ng/ml zebrafish recombinant FGF2. Each FGF family member was tested for its ability to support foreskin cell growth. Foreskin cells were aliquoted into the well of culture plates and incubated for 24 hours in DF5SFe minus FGF. Individual FGF types were added at 100 ng/ml for 96 h.

The source of these data is patent publication US9279107B2, “Simplified basic media for human pluripotent cell culture” (WISCONSIN ALUMNI RESEARCH FOUNDATION, priority 2010, dated 2016).

B1: NODAL (protein, UniProt Q96S42 238-347, looked up)
Nodal homolog: HHLPDRSQLCRKVKFQVDFNLIGWGSWIIYPKQYNAYRCEGECPNPVGEEFHPTNHAYIQSLLKRYQPHRVPSTCCAPVKTKPLSMLYVDNGRVLLDHHKDMIVEECGCL
notes: recombinant protein of the TGF-β pathway
B1: the “NANOG mRNA level” value in test [1] is “significantly higher levels of NANOG mRNA”. Also, the Oct4 expression entry in test [2] is “sustained high Oct4 expression”. In test [3], the long-term pluripotency result is on record as “supported long-term pluripotency of iPS cells”.

B2: FGF4: FGF family member growth factor (protein, UniProt P08620 31-206, looked up)
Fibroblast growth factor 4: APTAPNGTLEAELERRWESLVALSLARLPVAAQPKEAAVQSGAGDYLLGIKRLRRLYCNVGIGFHLQALPDGRIGGAHADTRDSLLELSPVERGVVSIFGVASRFFVAMSSKGKLYGSPFFTDECTFKEILLPNNYNAYESYKYPGMFIALSKNGKTKKGNRVSPTMKVTHFLPRL
On to B2, for which, in test [4], the foreskin cell growth result was “supported foreskin cell growth most effectively”.

B3: FGF6: FGF family member growth factor (protein, UniProt P10767 38-208, looked up)
Fibroblast growth factor 6: SPAGTRANNTLLDSRGWGTLLSRSRAGLAGEIAGVNWESGYLVGIKRQRRLYCNVGIGFHLQVLPDGRISGTHEENPYSLLEISTVERGVVSLFGVRSALFVAMNSKGRLYATPSFQEECKFRETLLPNNYNAYESDLYQGTYIALSKYGRVKRGSKVSPIMTVTHFLPRI
For the molecule B3, the foreskin cell growth result in test [4] is recorded as “supported foreskin cell growth most effectively”.
